Reference: patent publication US20260193348A1

Tests used:
[1] = target: GPRC5D (G-protein coupled receptor family C group 5 member D), human, on multiple myeloma cell lines (human) (UniProt Q9NZD1); assay: cell-based or functional assay
[2] = target: CD3 (Cluster of Differentiation 3 protein), human, on T cells / Jurkat cells (human) (UniProt P07766); assay: FACS, CD3+ T cells isolated from normal donors
Sequence of CD3 (Cluster of Differentiation 3 protein), human, on T cells / Jurkat cells (human) (P07766 23-207, chain 1 of 3): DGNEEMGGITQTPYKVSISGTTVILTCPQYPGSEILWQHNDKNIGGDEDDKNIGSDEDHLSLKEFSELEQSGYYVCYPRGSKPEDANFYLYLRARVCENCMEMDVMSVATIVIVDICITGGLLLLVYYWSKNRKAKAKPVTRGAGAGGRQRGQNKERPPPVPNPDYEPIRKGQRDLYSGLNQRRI
Sequence of CD3 (Cluster of Differentiation 3 protein), human, on T cells / Jurkat cells (human) (P04234 22-171, chain 2 of 3, further chain): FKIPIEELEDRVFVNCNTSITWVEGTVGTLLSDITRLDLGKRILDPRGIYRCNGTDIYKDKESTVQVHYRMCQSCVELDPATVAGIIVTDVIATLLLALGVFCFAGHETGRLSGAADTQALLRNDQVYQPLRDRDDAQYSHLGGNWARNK
Sequence of CD3 (Cluster of Differentiation 3 protein), human, on T cells / Jurkat cells (human) (P09693 23-182, chain 3 of 3, further chain): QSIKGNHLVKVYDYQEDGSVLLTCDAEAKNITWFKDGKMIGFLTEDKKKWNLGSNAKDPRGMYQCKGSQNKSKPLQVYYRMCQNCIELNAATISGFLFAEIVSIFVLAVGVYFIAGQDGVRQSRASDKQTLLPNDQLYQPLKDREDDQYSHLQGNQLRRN

Sequence of GPRC5D (G-protein coupled receptor family C group 5 member D), human, on multiple myeloma cell lines (human) (Q9NZD1 whole entry): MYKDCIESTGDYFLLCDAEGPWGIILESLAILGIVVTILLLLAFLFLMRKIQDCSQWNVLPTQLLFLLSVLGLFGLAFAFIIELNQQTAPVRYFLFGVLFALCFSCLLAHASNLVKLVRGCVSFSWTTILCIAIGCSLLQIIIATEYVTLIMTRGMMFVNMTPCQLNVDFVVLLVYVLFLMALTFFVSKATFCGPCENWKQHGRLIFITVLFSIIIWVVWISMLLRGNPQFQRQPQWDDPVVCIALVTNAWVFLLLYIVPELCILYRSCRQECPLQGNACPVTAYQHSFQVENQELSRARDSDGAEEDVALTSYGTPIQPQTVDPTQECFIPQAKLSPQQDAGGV

Substance: IgG1 (antibody)
- Top (%), T-Cell Dependent Cytotoxicity, MM.1S [1]: 6.08%
- Top (RLU), luciferase assay, L363 [1]: 23.4 RLU
- Top (RLU), luciferase assay, MM.1S [1]: 30.7 RLU
- Top (RLU), luciferase assay, RPMI8226 [1]: 5.33 RLU
- Top (MFI) [2]: 124 MFI
